Assay results as given in article PMC10770758, “Protocatechuate hydroxylase is a novel group A flavoprotein monooxygenase with a unique substrate recognition mechanism” (The Journal of Biological Chemistry, 2023).

B1: XaPobA (Xylophilus ampelinus) (protein)
chain: MRTQVGIVGAGPAGLMLAHLLRREGIDAVVIERAAREHVRTRLRAGVLEQGTVEMLREAGVGGRIDAVGMEMHAIDFRFGGRSHRLDFHEASGGRRAWVYPQHEVVTDLMSACDAGDVPILYEAPVERIEGLEDDRARIVFGQDGAAGEITCDFVAGCDGFRGVSRGSMPAGIARGYDRIYPFGWLGILADAPPASPDVTWGCSDRGFAMMSMRSPTVTRLYLQCEPDEDPDAWSDDRIWSELHRRLDVEGMPSLREGPIRDKGVTAMRSFLSEPMQHGRLFLAGDAAHIVPPTGAKGLNSAMADIKVLAAALVDHYRHGRSDRLATYSERCLRRMWLVQRFSAALCTMVHQFPGQNEFVRRLQRADLDYMTGTHAGRLQFAENFTGLPIE
B2: PkPobA (Pigmentiphaga kullae) (protein)
chain: MSERTQVGIVGAGPAGLLLSHLLHREGIESIVFDNRSREHVQQRLRAGVLEQGTVDLLAEVGLGERMRRLGMPQTSLDFRYAQASHRIDFAQEIGRTVMVYPQHEVVHDLIEARLAAGGDLRFDTPVTAIRDLEGPSPTILAGPEGRPVRCDFIAGCDGFHGICRDAIPASVMKAYDRVYPFGWLGILAEVPPAAPDVTWGCHETGFAMLSFRSPTRSRLYLQCEPDDDPDNWSDDRIWSALHERLDVPGMPPLIEGPIVQKGVTAMRSFQVEPLRHGALFLAGDAAHIVPPTGAKGLNSAVADIRVLGRALAAYYRQGSTRLLDSYSETCLRRMWLVHRFSAGLCTMVHSFPGQSDFARRLQRADLDYMTGSEPGRRAFSENFTGLPIEA
B3: PaPobA (Pseudomonas aeruginosa PAO1) (protein)
chain: MKTQVAIIGAGPSGLLLGQLLHKAGIDNVILERQTPDYVLGRIRAGVLEQGMVDLLREAGVDRRMARDGLVHEGVEIAFAGQRRRIDLKRLSGGKTVTVYGQTEVTRDLMEAREACGATTVYQAAEVRLHDLQGERPYVTFERDGERLRLDCDYIAGCDGFHGISRQSIPAERLKVFERVYPFGWLGLLADTPPVSHELIYANHPRGFALCSQRSATRSRYYVQVPLSEKVEDWSDERFWTELKARLPSEVAEKLVTGPSLEKSIAPLRSFVVEPMQHGRLFLAGDAAHIVPPTGAKGLNLAASDVSTLYRLLLKAYREGRGELLERYSAICLRRIWKAERFSWWMTSVLHRFPDTDAFSQRIQQTELEYYLGSEAGLATIAENYVGLPYEEIE

Experiments:
purified protein [1] = substrate: O=C(O)c1ccc(O)c(O)c1; test: purified protein; conditions: apparent, 0.25 mM NADPH, 20 mM Tris-HCl pH 7.9, 25 °C
purified protein [2] = substrate: O=C(O)c1ccc(O)cc1; test: purified protein; conditions: apparent, 0.25 mM NADPH, 20 mM Tris-HCl pH 7.9, 25 °C

Row | Protein | Km (purified protein [1]) | Km (purified protein [2]) | kcat (purified protein [1]) [s⁻¹] | kcat/Km (purified protein [1]) [M⁻¹ s⁻¹]
1 | B1 | 3.7 ± 0.9 × 10^−1 mM | 4.3 ± 0.3 × 10^−1 mM |  | 
2 | B2 | 3.2 ± 0.7 × 10^−1 mM | 3.7 ± 1.8 × 10^−1 mM | 1.1 ± 0.1 | 3700 ± 600
3 | B3 | 1.3 ± 0.2 × 10^−1 mM |  |  | 
